For test [1], the target named is calmodulin (UniProt P0DP23). Description: microscale thermophoresis, labelled SXkmer A with free calmodulin in solution. On the technique in general: MST reads how a fluorescent partner responds to local heating, with and without ligand.
Test [2] has as its target calmodulin (UniProt P0DP23). Description: SPR, CaM immobilised, SXkmer A injected, BiaEvaluate fit. (In general: In SPR one partner is held on a chip, and binding of the other changes the refractive index at the surface.)

The text below walks through data of patent US20260234206A1.

For the substance “Loop calmodulin binder SXkmer A (KMRPGVN) (designed binder)”, the dissociation constant Kd in the test with calmodulin [1] turned out to be 0.14 µM. For the same substance, the koff with calmodulin [2] amounted to 1e-06 s⁻¹.

What is called Kd is the equilibrium constant for the complex coming apart. A higher Kd goes with lower affinity. As usually defined, the koff is the first-order rate constant of dissociation.
